Test results: the supplement of paper PMC5998384

Key:
HeLa Kyoto [1] = experiment: melting temperature (median over replicates), in situ; higher = more thermally stable
HeLa Kyoto [2] = experiment: solubility in G1/S (NP-40 vs SDS abundance) (log2 ratio); higher = more soluble; conditions: cell cycle stage: G1/S
HeLa Kyoto [3] = experiment: thermal stability score vs G1/S (z-score of summed log2 fold changes over temperatures); higher = more thermally stable than in G1/S
HeLa Kyoto [4] = experiment: solubility change mitosis vs G1/S (difference of NP-40 vs SDS log2 ratios) (log2 ratio difference); higher = more soluble in mitosis
[5] = cell cycle stage: early G1 (4.5 h after nocodazole release)
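For melting temperature (median over replicates), in situ in this document: HeLa Kyoto cells synchronized by double thymidine or nocodazole block, proteins quantified by TMT10plex mass spectrometry, three independent biological replicates.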
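For solubility change mitosis vs G1/S (difference of NP-40 vs SDS log2 ratios) in this document: synchronized HeLa Kyoto cells (double thymidine block for G1/S, nocodazole release for mitosis), protein amounts in NP-40 versus SDS lysates quantified by mass spectrometry, three biological replicates.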
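For solubility in G1/S (NP-40 vs SDS abundance) in this document: HeLa Kyoto cells arrested at G1/S by double thymidine block, proteins quantified by TMT10plex mass spectrometry in mild NP-40 versus SDS extracts, three biological replicates.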
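For thermal stability score vs G1/S (z-score of summed log2 fold changes over temperatures) in this document: synchronized HeLa Kyoto cells, proteins quantified by TMT10plex mass spectrometry, three biological replicates, mitosis taken 0.5 h after nocodazole release, G1/S directly after double thymidine block.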

| Sequence | melting temperature (HeLa Kyoto [1]; cell cycle stage: G1/S) | melting temperature (HeLa Kyoto [1]; cell cycle stage: mitosis) | solubility in G1/S (log2) (HeLa Kyoto [2]) | thermal stability score (HeLa Kyoto [3]; [5]) | thermal stability score (HeLa Kyoto [3]; cell cycle stage: mitosis) | solubility change mitosis (log2) (HeLa Kyoto [4]) |
| --- | --- | --- | --- | --- | --- | --- |
| MEGQRWLPLEANPEVTNQFLKQLGLHPNWQFVDVYGMDPELLSMVPRPVCAVLLLFPITEKYEVFRTEEEEKIKSQGQDVTSSVYFMKQTISNACGTIGLIHAIANNKDKMHFESGSTLKKFLEESVSMSPEERARYLENYDAIRVTHETSAHEGQTEAPSIDEKVDLHFIALVHVDGHLYELDGRKPFPINHGETSDETLLEDAIEVCKKFMERDPDELRFNAIALSAA [UCHL3] | 52.2 °C | 52.2 °C | 0.205 | 0.593 | -0.422 | 0.183 |
| MEHVTEGSWESLPVPLHPQVLGALRELGFPYMTPVQSATIPLFMRNKDVAAEAVTGSGKTLAFVIPILEILLRREEKLKKSQVGAIIITPTRELAIQIDEVLSHFTKHFPEFSQILWIGGRNPGEDVERFKQQGGNIIVATPGRLEDMFRRKAEGLDLASCVRSLDVLVLDEADRLLDMGFEASINTILEFLPKQRRTGLFSATQTQEVENLVRAGLRNPVRVSVKEKGVAASSAQKTPSRLENYYMVCKADEKFNQLVHFLRNHKQEKHLVFFSTCACVEYYGKALEVLVKGVKIMCIHGKMKYKRNKIFMEFRKLQSGILVCTDVMARGIDIPEVNWVLQYDPPSNASAFVHRCGRTARIGHGGSALVFLLPMEESYINFLAINQKCPLQEMKPQRNTADLLPKLKSMALADRAVFEKGMKAFVSYVQAYAKHECNLIFRLKDLDFASLARGFALLRMPKMPELRGKQFPDFVPVDVNTDTIPFKDKIREKQRQKLLEQQRREKTENEGRRKFIKNKAWSKQKAKKEKKKKMNEKRKREEGSDIEDEDMEELLNDTRLLKKLKKGKITEEEFEKGLLTTGKRTIKTVDLGISDLEDDC [DDX55] | 49.2 °C | 50.7 °C | -1.07 | 2.22 | 3.29 | 0.392 |
| MEIGTEISRKIRSAIKGKLQELGAYVDEELPDYIMVMVANKKSQDQMTEDLSLFLGNNTIRFTVWLHGVLDKLRSVTTEPSSLKSSDTNIFDSNVPSNKSNFSRGDERRHEAAVPPLAIPSARPEKRDSRVSTSSQESKTTNVRQTYDDGAATRLMSTVKPLREPAPSEDVIDIKPEPDDLIDEDLNFVQENPLSQKKPTVTLTYGSSRPSIEIYRPPASRNADSGVHLNRLQFQQQQNSIHAAKQLDMQSSWVYETGRLCEPEVLNSLEETYSPFFRNNSEKMSMEDENFRKRKLPVVSSVVKVKKFNHDGEEEEEDDDYGSRTGSISSSVSVPAKPERRPSLPPSKQANKNLILKAISEAQESVTKTTNYSTVPQKQTLPVAPRTRTSQEELLAEVVQGQSRTPRISPPIKEEETKGDSVEKNQGTQQRQLLSRLQIDPVMAETLQMSQDYYDMESMVHADTRSFILKKPKLSEEVVVAPNQESGMKTADSLRVLSGHLMQTRDLVQPDKPASPKFIVTLDGVPSPPGYMSDQEEDMCFEGMKPVNQTAASNKGLRGLLHPQQLHLLSRQLEDPNGSFSNAEMSELSVAQKPEKLLERCKYWPACKNGDECAYHHPISPCKAFPNCKFAEKCLFVHPNCKYDAKCTKPDCPFTHVSRRIPVLSPKPAVAPPAPPSSSQLCRYFPACKKMECPFYHPKHCRFNTQCTRPDCTFYHPTINVPPRHALKWIRPQTSE [ZC3H14] | 49.7 °C | 51.2 °C | -0.475 | -0.823 | 0.321 | 0.656 |
| MEIPGSLCKKVKLSNNAQNWGMQRATNVTYQAHHVSRNKRGQVVGTRGGFRGCTVWLTGLSGAGKTTVSMALEEYLVCHGIPCYTLDGDNIRQGLNKNLGFSPEDREENVRRIAEVAKLFADAGLVCITSFISPYTQDRNNARQIHEGASLPFFEVFVDAPLHVCEQRDVKGLYKKARAGEIKGFTGIDSEYEKPEAPELVLKTDSCDVNDCVQQVVELLQERDIVPVDASYEVKELYVPENKLHLAKTDAETLPALKINKVDMQWVQVLAEGWATPLNGFMREREYLQCLHFDCLLDGGVINLSVPIVLTATHEDKERLDGCTAFALMYEGRRVAILRNPEFFEHRKEERCARQWGTTCKNHPYIKMVMEQGDWLIGGDLQVLDRVYWNDGLDQYRLTPTELKQKFKDMNADAVFAFQLRNPVHNGHALLMQDTHKQLLERGYRRPVLLLHPLGGWTKDDDVPLMWRMKQHAAVLEEGVLNPETTVVAIFPSPMMYAGPTEVQWHCRARMVAGANFYIVGRDPAGMPHPETGKDLYEPSHGAKVLTMAPGLITLEIVPFRVAAYNKKKKRMDYYDSEHHEDFEFISGTRMRKLAREGQKPPEGFMAPKAWTVLTEYYKSLEKA [PAPSS1] | 53.6 °C | 53.8 °C | 0.104 | 0.0766 | -0.551 | -0.174 |
| MEIPPTNYPASRAALVAQNYINYQQGTPHRVFEVQKVKQASMEDIPGRGHKYHLKFAVEEIIQKQVKVNCTAEVLYPSTGQETAPEVNFTFEGETGKNPDEEDNTFYQRLKSMKEPLEAQNIPDNFGNVSPEMTLVLHLAWVACGYIIWQNSTEDTWYKMVKIQTVKQVQRNDDFIELDYTILLHNIASQEIIPWQMQVLWHPQYGTKVKHNSRLPKEVQLE [LXN] | 51.9 °C | 52.3 °C | 0.224 | 0.745 | 0.0486 | -0.098 |
| MEKIPVSAFLLLVALSYTLARDTTVKPGAKKDTKDSRPKLPQTLSRGWGDQLIWTQTYEEALYKSKTSNKPLMIIHHLDECPHSQALKKVFAENKEIQKLAEQFVLLNLVYETTDKHLSPDGQYVPRIMFVDPSLTVRADITGRYSNRLYAYEPADTALLLDNMKKALKLLKTEL [AGR2] | 53.8 °C | 53.4 °C | 0.49 | 0.575 | -1.24 | 0.3 |
| MEKRETFVQAVSKELVGEFLQFVQLDKEASDPFSLNELLDELSRKQKEELWQRLKNLLTDVLLESPVDGWQVVEAQGEDNMETEHGSKMRKSIEIIYAITSVILASVSVINESENYEALLECVIILNGILYALPESERKLQSSIQDLCVTWWEKGLPAKEDTGKTAFVMLLRRSLETKTGADVCRLWRIHQALYCFDYDLEESGEIKDMLLECFININYIKKEEGRRFLSCLFNWNINFIKMIHGTIKNQLQGLQKSLMVYIAEIYFRAWKKASGKILEAIENDCIQDFMFHGIHLPRRSPVHSKVREVLSYFHHQKKVRQGVEEMLYRLYKPILWRGLKARNSEVRSNAALLFVEAFPIRDPNLHAIEMDSEIQKQFEELYSLLEDPYPMVRSTGILGVCKITSKYWEMMPPTILIDLLKKVTGELAFDTSSADVRCSVFKCLPMILDNKLSHPLLEQLLPALRYSLHDNSEKVRVAFVDMLLKIKAVRAAKFWKICPMEHILVRLETDSRPVSRRLVSLIFNSFLPVNQPEEVWCERCVTLVQMNHAAARRFYQYAHEHTACTNIAKLIHVIRHCLNACIQRAVREPPEDEEEEDGREKENVTVLDKTLSVNDVACMAGLLEIIVILWKSIDRSMENNKEAKLYTINKFASVLPEYLKVFKDDRCKIPLFMLMSFMPASAVPPFSCGVISTLRSREEGAVDKSYCTLLDCLCSWGQVGHILELVDNWLPTEHAQAKSNTASKGRVQIHDTRPVKPELALVYIEYLLTHPKNRECLLSAPRKKLNHLLKALETSKADLESLLQTPGGKPRGFSEAAAPRAFGLHCRLSIHLQHKFCSEGKVYLSMLEDTGFWLESKILSFIQDQEEDYLKLHRVIYQQIIQTYLTVCKDVVMVGLGDHQFQMQLLQRSLGIMQTVKGFFYVSLLLDILKEITGSSLIQKTDSDEEVAMLLDTVQKVFQKMLECIARSFRKQPEEGLRLLYSVQRPLHEFITAVQSRHTDTPVHRGVLSTLIAGPVVEISHQLRKVSDVEELTPPEHLSDLPPFSRCLIGIIIKSSNVVRSFLDELKACVASNDIEGIVCLTAAVHIILVINAGKHKSSKVREVAATVHRKLKTFMEITLEEDSIERFLYESSSRTLGELLNS [NCAPG2] | 49.1 °C | 48.1 °C | -0.313 | 0.33 | 0.687 | -0.0274 |
| MEKSSSCESLGSQPAAARPPSVDSLSSASTSHSENSVHTKSASVVSSDSISTSADNFSPDLRVLRESNKLAEMEEPPLLPGENIKDMAKDVTYICPFTGAVRGTLTVTNYRLYFKSMERDPPFVLDASLGVINRVEKIGGASSRGENSYGLETVCKDIRNLRFAHKPEGRTRRSIFENLMKYAFPVSNNLPLFAFEYKEVFPENGWKLYDPLLEYRRQGIPNESWRITKINERYELCDTYPALLVVPANIPDEELKRVASFRSRGRIPVLSWIHPESQATITRCSQPMVGVSGKRSKEDEKYLQAIMDSNAQSHKIFIFDARPSVNAVANKAKGGGYESEDAYQNAELVFLDIHNIHVMRESLRKLKEIVYPNIEETHWLSNLESTHWLEHIKLILAGALRIADKVESGKTSVVVHCSDGWDRTAQLTSLAMLMLDGYYRTIRGFEVLVEKEWLSFGHRFQLRVGHGDKNHADADRSPVFLQFIDCVWQMTRQFPTAFEFNEYFLITILDHLYSCLFGTFLCNSEQQRGKENLPKRTVSLWSYINSQLEDFTNPLYGSYSNHVLYPVASMRHLELWVGYYIRWNPRMKPQEPIHNRYKELLAKRAELQKKVEELQREISNRSTSSSERASSPAQCVTPVQTVV [MTMR2] | 53.4 °C | 53 °C | 0.0322 | -1.45 | -1.51 | -0.12 |
| MELCGLGLPRPPMLLALLLATLLAAMLALLTQVALVVQVAEAARAPSVSAKPGPALWPLPLLVKMTPNLLHLAPENFYISHSPNSTAGPSCTLLEEAFRRYHGYIFGFYKWHHEPAEFQAKTQVQQLLVSITLQSECDAFPNISSDESYTLLVKEPVAVLKANRVWGALRGLETFSQLVYQDSYGTFTINESTIIDSPRFSHRGILIDTSRHYLPVKIILKTLDAMAFNKFNVLHWHIVDDQSFPYQSITFPELSNKGSYSLSHVYTPNDVRMVIEYARLRGIRVLPEFDTPGHTLSWGKGQKDLLTPCYSRQNKLDSFGPINPTLNTTYSFLTTFFKEISEVFPDQFIHLGGDEVEFKCWESNPKIQDFMRQKGFGTDFKKLESFYIQKVLDIIATINKGSIVWQEVFDDKAKLAPGTIVEVWKDSAYPEELSRVTASGFPVILSAPWYLDLISYGQDWRKYYKVEPLDFGGTQKQKQLFIGGEACLWGEYVDATNLTPRLWPRASAVGERLWSSKDVRDMDDAYDRLTRHRCRMVERGIAAQPLYAGYCNHENM [HEXB] | 56.7 °C | 58 °C | 0.38 | -1.76 | -0.878 | 0.0247 |
| MELDSALEAPSQEDSNLSEELSHSAFGQAFSKILHCLARPEARRGNVKDAVLKDLGDLIEATEFDRLFEGTGARLRGMPETLGQVAKALEKYAAPSKEEEGGGDGHSEAAEKAAQVGLLFLKLLGKVETAKNSLVGPAWQTGLHHLAGPVYIFAITHSLEQPWTTPRSREVAREVLTSLLQVTECGSVAGFLHGENEDEKGRLSVILGLLKPDLYKESWKNNPAIKHVFSWTLQQVTRPWLSQHLERVLPASLVISDDYQTENKILGVHCLHHIVLNVPAADLLQYNRAQVLYHAISNHLYTPEHHLIQAVLLCLLDLFPILEKTLHWKGDGARPTTHCDEVLRLILTHMEPEHRLLLRRTYARNLPAFVNRLGILTVRHLKRLERVIIGYLEVYDGPEEEARLKILETLKLLMQHTWPRVSCRLVVLLKALLKLICDVARDPNLTPESVKSALLQEATDCLILLDRCSQGRVKGLLAKIPQSCEDRKVVNYIRKVQQVSEGAPYNGT [TTI2] | 50.5 °C | 49.7 °C | 0.208 | 0.152 | 0.904 | -0.201 |
| MELFLAGRRVLVTGAGKGIGRGTVQALHATGARVVAVSRTQADLDSLVRECPGIEPVCVDLGDWEATERALGSVGPVDLLVNNAAVALLQPFLEVTKEAFDRSFEVNLRAVIQVSQIVARGLIARGVPGAIVNVSSQCSQRAVTNHSVYCSTKGALDMLTKVMALELGPHKIRVNAVNPTVVMTSMGQATWSDPHKAKTMLNRIPLGKFAEVEHVVNAILFLLSDRSGMTTGSTLPVEGGFWAC [DCXR] | 57.7 °C | 55.7 °C | 0.282 | -1.92 | -1.77 | -0.0268 |
| MELSAEYLREKLQRDLEAEHVEVEDTTLNRCSCSFRVLVVSAKFEGKPLLQRHRLVNACLAEELPHIHAFEQKTLTPDQWARERQK [BOLA2] | 50.9 °C | 51.9 °C | -0.0477 | 0.374 | 0.288 | 0.186 |
